experiment: soluble on expression in E. coli; label from the status in PepcDB or PDB records

For “MGSDKIHHHHHHMAHHAAPPINTTKFPIDRWWVAALSSELTDKPVARTLLGRPVVLFRLPSGEVGALEDRCCHKSLPLSCGSLEVRGLRCGYHGLLFDRDGACVEIPGQDRIPAKACVASYPVREQDAIVWIWIGAEAHAEPTCAPPRYPFHSDPQYRFGGGHYHYDAPYQLIHDNLMDLSHLGYVHLKTIGGNASLHMGAETRVSTDGDTVTLVRRMPDSEPPPTYTAAWPFAGRVDRWQEIEFHVSHIRIWTGAMDAGTGDLHDPARGGFHMRGFHGITPETETTTHYFWTVATNPQHDIERVARTVIEQSAATFDEDKTVIEAQYRNQLRFPDRRQIDIHVDAGPNRARRVIERLLLQPEPA”, which “soluble on expression in E. coli” value is on record?
The value was “not soluble”.

Which “soluble on expression in E. coli” value does the source give for “MSLEGINPAVIMKAIMQSESVEQLSQEREKAEKLLKMYIAQDVAIHFISNIFTELNDALIVKAIEFSVADMKREGIDLPDIEFCWLSLGSEGRKEQLLRTDLDNAILFRDPENEASRETVQRVFLELGKRVTAILVACGFKPCPAEIMASNPEWCQPLSGWMNYFRKWIGTPEPKALMNSTIFFDFRPVYGSTALALEMKREINTEIARGRGFLQFFAKNALQNPPPLGFFRNFLVEKSREHAHEFDIKARALMPLSDAARVLACEFGVTDFLGTVERFRRIGQLLPSFQELAEEAAQGYEFLMRLRTEHGLAEKSSGRYIDPKHLNKMQRQKLRDLFTTIGKVQSMLNLRYQLDYIRAEGHHHHHH” here?
Its value is “soluble”.

With “MKNIKKNQVMNLGPNSKLLKEYKSQLIELNIEQFEAGIGLILGDAYIRSRDEGKTYCMQFEWKNKAYMDHVCLLYDQWVLSPPHKKERVNHLGNLVITWGAQTFKHQAFNKLANLFIVNNKKTIPNNLVENYLTPMSLAYWFMDDGGKWDYNKNSTNKSIVLNTQSFTFEEVEYLVKGLRNKFQLNCYVKINKNKPIIYIDSMSYLIFYNLIKPYLIPQMMYKLPNTISSETFLK” as the sequence, how does the “soluble on expression in E. coli” value read?
The value was “soluble”.

With “MATQGAWLRMTSSAKSMTKSTVTSKELGFLTSQLSGLRISYTPSDVINRISLPSFPGIQPIVARRICPFTGKKANRANKVSFSNHKTKKLQFVNLQYKRVWWEAGKRFVKLRLSTKALKTIEKNGLDAVAKKAGIDLRKKLEHHHHHH” as the sequence, how does the “soluble on expression in E. coli” value read?
The value was “not soluble”.

Which “soluble on expression in E. coli” value does the source give for “MSLTETQSLELAKELISRPSVTPDDRDCQKLMAERLHKIGFAAEEMHFGNTKNIWLRRGTKAPVVCFAGHTDVVPTGPVEKWDSPPFEPAERDGRLYGRGAADMKTSIACFVTACERFVAKHPNHQGSIALLITSDEEGDALDGTTKVVDVLKARDELIDYCIVGEPTAVDKLGDMIKNGRRGSLSGNLTVKGKQGHIAYPHLAINPVHTFAPALLELTQEVWDEGNEYFPPTSFQISNINGGTGATNVIPGELNVKFNFRFSTESTEAGLKQRVHAILDKHGVQYDLQWSCSGQPFLTQAGKLTDVARAAIAETCGIEAELSTTGGTSDGRFIKAMAQELIELGPSNATIHQINENVRLNDIPKLSAVYEGILVRLLAGNAVEGGSHHHHHH” here?
Its value is “soluble”.

For “MNGNIIGEDEKGVALFVEDNSGNEHEIGVNSEGDIFHHADNVIPDNPSERSDKEDETFSQVRRFARYHVYREKGYDTIPTDENPDRIAAVLLAIIDLDDEEFENRFKPLYKQVMSHERPDVEPSLDLPDSVYHGGEPCYKQNIYLEESLEEMKSTVSEQLVESIGQEQITEVLQADSGDFFSRAASLFGGPNGNYGGLTIDGISGIDTVHLVDGKEQTIKSDDPFERGPDARLELYPSNFDFEAFRFYIGYNLICQIRDCFIGMGVEPPAQYRVLGPGKDKYTGKYHAFDFYPEYHNPGATIPGYIRPAPI”, which “soluble on expression in E. coli” value is on record?
Its value is “not soluble”.

For “MAKNIQAIRGMNDYLPGETAIWQRIEGTLKNVLGSYGYSEIRLPIVEQTPLFKRAIGEVTDVVEKEMYTFEDRNGDSLTLRPEGTAGCVRAGIEHGLLYNQEQRLWYIGPMFRHERPQKGRYRQFHQLGCEVFGLQGPDIDAELIMLTARWWRALGISEHVTLELNSIGSLEARANYRDALVAFLEQHKEKLDEDCKRRMYTNPLRVLDSKNPEVQALLNDAPALGDYLDEESREHFAGLCKLLESAGIAYTVNQRLVRGLDYYNRTVFEWVTNSLGSQGTVCAGGRYDGLVEQLGGRATPAVGFAMGLERLVLLVQAVNPEFKADPVVDIYLVASGADTQSAAMALAERLRDELPGVKLMTNHGGGNFKKQFARADKWGARVAVVLGESEVANGTAVVKDLRSGEQTAVAQDSVAAHLRTLLG”, which “soluble on expression in E. coli” value is on record?
Its value is “soluble”.

Which “soluble on expression in E. coli” value does the source give for “SLGALGVIAFRRGYYYYVGSANSGVHRVKRHFSIKKKKRWHIDYISAKMEVVGAILSKEPECGLAQRFESFERIRGFGCSDCDCESHLFYSPTLNLEFLST” here?
The value was “soluble”.

Which “soluble on expression in E. coli” value does the source give for “VGTRSKSRTRQLKQSNGCTATTSGASDRRRRARRRTAPAWLREDEWLRHHLPHPPRQLSRCLHRRRRSACHHRYSRRTPKGGLPMTSSLVPISEARAHLSRLVRESADDDVVLMNHGRPAAILISAERYESLMEELEDLRDRLSVHEREHVTMPLDKLGAELGVDIGRV” here?
Its value is “not soluble”.

For “MSLNRFTKTSQGRSWNTGNGSPDAICFAVDKPGIVVVGFAVYGGGGIHEYELEVLVDDSEHAGDSTHSHRWTSLELVKGTYTTDDSPSDIAEIRLDKVVPLKENVKYAVRLRNYGSRTANGDGGMTTVQCPDGVTFTFSTCSLSSNGTNQTRGQIPQILYYRSEFDGDLQSQLLSKANEEDKNCSRALSVVSTVVRAAKDLLHRALAVDADEGHHHHHH”, which “soluble on expression in E. coli” value is on record?
Its value is “not soluble”.

With “MGSDKIHHHHHHMNFPIDEKLIREKQNELHIKDLGMASIRDLVALVTNLEKATGTKFCRMEMGVPGLPAPQIGIETEIQKLREGVASIYPNLDGLPELKQEASRFAKLFVNIDIPARACVPTVGSMQGCFVSFLVANRTHKNREYGTLFIDPGFNLNKLQCRILGQKFESFDLFEYRGEKLREKLESYLQTGQFCSIIYSNPNNPTWQCMTDEELRIIGELATKHDVIVIEDLAYFGMDFRKDYSHPGEPLYQPSVANYTDNYILALSSSKAFSYAGQRIGVLMISGKLYEREYPDLEESFGRLRFGEALSSSALYALSSGATHSAQWGMAAMLKACNDGEYNFRDSVIEYGRKARIMKKMFLDNGFNIVYDKDGNEPLADGFYFTVGYKGMDSSKLIEKFVRYGMCAITLKTTGSKRNEAMRICTSLLPESQFPDLEKRLQMLNAEG” as the sequence, how does the “soluble on expression in E. coli” value read?
Its value is “not soluble”.

Which “soluble on expression in E. coli” value does the source give for “MGSDKIHHHHHHMDVTSTLSLGDPLEPARKATADMLRSRDHSFSLPQPFYCDQRLFEIDMQEIFHKEWLIAGMTCEIPAKGNFLTLQIGKNPVLVIRGAEGQVHAFHNVCRHRGSRLCVSEKGKVAKLVCPYHQWTYELDGRLLFAGTEMGADFDMKEYGLKPIQVKTAGGYIFISLAENPPAIDDFLATLEHYMEPYDMENAKVAVQTTIREAANWKLVIENNRECYHCNGSHPELLKTLLEWDDVTDPRASQAFKDQVAACTSAWDAEKIPYAHASFGLRNRIVRMPLLDGTVSMTMDGKQGSKKLMGRIKNPDLGSMRILHLPHSWNHCMGDHLIVFTVWPISAQETLVTTKWLVHKDAVEGVDYDVARLREVWDATNDQDRRLAEENQRGINSDAYQPGPYSKTYEFGVINFLDWYSERMLNNLGEESAHVRKVAGS” here?
Its value is “not soluble”.

Which “soluble on expression in E. coli” value does the source give for “MSLMKSSPLVRQASTEKESTKSENLTEYLIEAIVEGQLAPGSKISEPELAKQFQVSRGPLREALMRVEGLGLIERIPHIGARVIQLSPTKLVELYAVREALEGMAARLAARNITEIELAGLESLLSTHSTHIDQVEGASYFHQQGDFDFHYRIIQACRNQQLIGLLCDELYHLLRMYRYQSPRSHSRPVEALEEHKFILRAIRQRDEELAEMLMRRHISRSRQLIEQQIMLDAQQQGEGHHHHHH” here?
Its value is “soluble”.

Which “soluble on expression in E. coli” value does the source give for “MDLEISEKIKAYRQVMSAKSPSDAALTWNLFDLPNNMELARFFSTLSKEEMAKFEQCVFVDGQDPKTYIKMHKMVESTATIALSEEIENKRTILVAEPNRGGVSGHEGEMASTSSGFRDGYHPCMDHTSYAEGLFTESEKAWELERLLKLQKEIAEAKSKIVKQKKPSIKSA” here?
The value was “not soluble”.

— the DeepSol protein solubility set
